In the supplement of paper PMC11811203:

B1: THAP1; numbered along this chain (parent)
chain: MVQSCSAYGCKNRYDKDKPVSFHKFPLTRPSLCKEWEAAVRRKNFKPTKYSSICSEHFTPDCFKRECNNKLLKENAVPTIFLCTEPHDKKEDLLEPQEQLPPPPLPPPVSQVDAAIGLLMPPLQTPVNLSVFCDHNYTVEDTMHQRKRIHQLEQQVEKLRKKLKTAQQRCRRQERQLEKLKEVVHFQKEKDDVSERGYVILPNDYFEIVEVPA

Variants of: B1
Experiment: THAP1 transcriptional activity (GFP+/GFP- enrichment relative to wild-type constructs) (ratio to WT); higher = more THAP1 activity (PSMB5 reporter activation)
Conditions: with PSMB5 promoter-GFP reporter
In short: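 A site-saturation library of human THAP1 (residues 2–213, each changed to all 20 amino acids) was transduced by lentivirus at MOI ~0.3, in duplicate, into THAP1-knockout HEK-293T cells carrying mClover3 knocked in at endogenous PSMB5. After five days, BFP+ cells were sorted into GFP-dim and GFP-bright bins, and variants were counted by Illumina sequencing of genomic DNA amplicons. Activity is the replicate-mean bright/dim read fold change divided by the mean of wild-type synonymous constructs.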

THAP1 transcriptional activity of substitutions, site by site:
V211: R 0.811, I 1.34, L 1.38, T 0.876, N 0.965, P 0.462, S 1.03, G 0.936, Y 0.843, H 1.29, F 1.01, W 0.56, C 0.988
E210: Y 1.39, F 0.823, A 0.354, P 0.35, C 1.03, I 1.23, M 0.913, W 0.686, G 0.666, L 0.744, S 0.594, D 1.07, T 1.08, V 1.06, R 0.747, Q 1.15
E207: V 1.29, L 1.2, D 0.615, I 0.667, Y 1.02, T 0.557, M 0.796, P 0.59, N 0.625, H 0.501, R 0.5, Q 1.02, A 0.721, S 0.559, C 1.11, F 0.867, G 0.488
I208: P 0.675, F 0.98, Q 0.835, Y 1.14, C 1.06, S 1.17, M 1.25, K 0.59, A 0.838, V 1.2, D 0.924, R 0.751, G 0.803, N 0.926, W 0.755, E 1.41
Y205: G 1.84, M 1.5, H 1.38, Q 1.51, D 0.754, V 0.976, A 1.86, N 0.989, W 2.45, K 0.717, L 2.1, P 0.805, S 1.17, F 0.778, I 1.07, E 1.09, C 1.28, R 0.621
P212: G 0.939, F 0.548, K 0.974, C 0.673, V 1.99, D 0.943, M 1.4, Q 1.45, I 1.75, R 0.594, E 0.535, H 2.31, Y 1.42, L 1.42, S 1.34, N 1.15, W 0.968
A213: I 0.974, G 0.677, W 0.538, Y 0.711, Q 1.25, H 0.644, C 0.884, E 0.81, R 0.843, N 1.27, M 0.984, K 1.13, V 0.455, L 0.907, D 0.729, F 0.655
V209: S 0.634, T 0.765, W 0.757, Y 0.755, F 0.531, E 0.612, H 0.835, L 0.773, Q 1.67, I 0.823, M 0.587, C 0.679, P 0.814, N 0.716, R 0.953, K 0.98, D 0.517
D204: Y 0.63, V 1.39, T 1.04, W 0.525
F206: P 0.832, D 1.24, K 1.08, I 1.27, H 1.05, Y 1.21, V 1.41, C 1.5, S 1.09, Q 0.86, W 1.27, E 1.11, R 0.87, T 1.04, N 0.873
